This test deals with Gαi1 subunit (human, UniProt P63096). Kind of test: cryo-EM structure.

B1: hNTSR1(∆ICL3; residues 20-418, A85L, ∆282-291) (receptor)
chain: QRAQAGLEEALLAPGFGNASGNASERVLAAPSSELDVNTDIYSKVLVTAVYLALFVVGTVGNTVTLFTLARKKSLQSLQSTVHYHLGSLALSDLLTLLLAMPVELYNFIWVHHPWAFGDAGCRGYYFLRDACTYATALNVASLSVERYLAICHPFKAKTLMSRSRTKKFISAIWLASALLAVPMLFTMGEQNRSADGQHAGGLVCTPTIHTATVKVVIQVNTFMSFIFPMVVISVLNTIIANKLTVMVRQAAEQGQVCTVGGPGRVQALRHGVRVLRAVVIAFVVCWLPYHVRRLMFCYISDEQWTPFLYDFYHYFYMVTNALFYVSSTINPILYNLVSANFRHIFLATLACLCPVWRRRRKRPAFSRKADSVSSNHTLSSNATRETLY
In the case of B1, the binding result was “binds”.

The values above are taken from article PMC7065593 (Nature, 2019).
